# In the supplement of paper PMC11316812:
# ± gives the standard deviation of the averaged measurements.
# Assays:
# hTERT-HMEC = test: percentage of EdU-negative (G0-arrested) nuclei per well, 72 h; higher = more G0 arrest; settings: reference: sequence is the full UniProt precursor, the tested protein was the secreted form or ectodomain
# MCF7 = test: as above; settings: reference: sequence is the full UniProt precursor, the tested protein was the secreted form or ectodomain
# [1] = protein concentration 0.0262857 µM
# [2] = protein concentration 0.262857 µM
# [3] = protein concentration 0.03125 µM
# [4] = protein concentration 0.3125 µM
# [5] = protein concentration 0.0225 µM
# [6] = protein concentration 0.02657 µM
# [7] = protein concentration 0.2657 µM
# [8] = protein concentration 0.009215 µM
# [9] = protein concentration 0.09215 µM
# [10] = protein concentration 0.0070625 µM
# [11] = protein concentration 0.070625 µM
# [12] = protein concentration 0.01725 µM
# [13] = protein concentration 0.1725 µM
# [14] = protein concentration 0.00975 µM
# [15] = protein concentration 0.0975 µM
# [16] = protein concentration 0.0240725 µM
# [17] = protein concentration 0.240725 µM
# 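Also: secreted proteins added to cultured cells, EdU pulse at the end, nuclei found by Hoechst imaging, EdU status from nuclear versus surrounding ring intensity ratio, PBS as neutral control.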
sequence,measurement,setting,value
MFLKAVVLTLALVAVAGARAEVSADQVATVMWDYFSQLSNNAKEAVEHLQKSELTQQLNALFQDKLGEVNTYAGDLQKKLVPFATELHERLAKDSEKLKEEIGKELEELRARLLPHANEVSQKIGDNLRELQQRLEPYADQLRTQVSTQAEQLRRQLTPYAQRMERVLRENADSLQASLRPHADELKAKIDQNVEELKGRLTPYADEFKVKIDQTVEELRRSLAPYAQDTQEKLNHQLEGLTFQMKKNAEELKARISASAEELRQRLAPLAEDVRGNLRGNTEGLQKSLAELGGHLDQQVEEFRRRVEPYGENFNKALVQQMEQLRQKLGPHAGDVEGHLSFLEKDLRDKVNSFFSTFKEKESQDKTLSLPELEQQQEQQQEQQQEQVQMLAPLES,percentage of EdU-negative,hTERT-HMEC; [1],5.7 ± 1%
same,percentage of EdU-negative,hTERT-HMEC; [2],7.022 ± 0.041%
same,percentage of EdU-negative,MCF7; [1],22.7 ± 1.3%
same,percentage of EdU-negative,MCF7; [2],27 ± 1.5%
MFPFYSCWRTGLLLLLLAVAVRESWQTEEKTCDLVGEKGKESEKELALVKRLKPLFNKSFESTVGQGSDTYIYIFRVCREAGNHTSGAGLVQINKSNGKETVVGRLNETHIFNGSNWIMLIYKGGDEYDNHCGKEQRRAVVMISCNRHTLADNFNPVSEERGKVQDCFYLFEMDSSLACSPEISHLSVGSILLVTFASLVAVYVVGGFLYQRLVVGAKGMEQFPHLAFWQDLGNLVADGCDFVCRSKPRNVPAAYRGVGDDQLGEESEERDDHLLPM,percentage of EdU-negative,hTERT-HMEC; [3],5.26 ± 0.29%
same,percentage of EdU-negative,hTERT-HMEC; [4],5.43 ± 0.57%
same,percentage of EdU-negative,MCF7; [3],25.21 ± 0.13%
same,percentage of EdU-negative,MCF7; [4],24.8 ± 1.1%
MFSTKALLLAGLISTALAGPWANICAGKSSNEIRTCDRHGCGQYSAQRSQRPHQGVDILCSAGSTVYAPFTGMIVGQEKPYQNKNAINNGVRISGRGFCVKMFYIKPIKYKGPIKKGEKLGTLLPLQKVYPGIQSHVHIENCDSSDPTAYL,percentage of EdU-negative,hTERT-HMEC; [5],4.82 ± 1.7%
same,percentage of EdU-negative,hTERT-HMEC; protein concentration 0.225 µM,7.53 ± 0.43%
same,percentage of EdU-negative,MCF7; [5],23.8 ± 1.3%
same,percentage of EdU-negative,MCF7; protein concentration 0.225 µM,26.3 ± 0.79%
MFTIKLLLFIVPLVISSRIDQDNSSFDSLSPEPKSRFAMLDDVKILANGLLQLGHGLKDFVHKTKGQINDIFQKLNIFDQSFYDLSLQTSEIKEEEKELRRTTYKLQVKNEEVKNMSLELNSKLESLLEEKILLQQKVKYLEEQLTNLIQNQPETPEHPEVTSLKTFVEKQDNSIKDLLQTVEDQYKQLNQQHSQIKEIENQLRRTSIQEPTEISLSSKPRAPRTTPFLQLNEIRNVKHDGIPAECTTIYNRGEHTSGMYAIRPSNSQVFHVYCDVISGSPWTLIQHRIDGSQNFNETWENYKYGFGRLDGEFWLGLEKIYSIVKQSNYVLRIELEDWKDNKHYIEYSFYLGNHETNYTLHLVAITGNVPNAIPENKDLVFSTWDHKAKGHFNCPEGYSGGWWWHDECGENNLNGKYNKPRAKSKPERRRGLSWKSQNGRLYSIKSTKMLIHPTDSESFE [Q9Y5C1],percentage of EdU-negative,hTERT-HMEC; [6],4.63 ± 0.83%
same,percentage of EdU-negative,hTERT-HMEC; [7],6.34 ± 0.5%
same,percentage of EdU-negative,MCF7; [6],25.5 ± 1.9%
same,percentage of EdU-negative,MCF7; [7],25.9 ± 2.1%
MFWKLSLSLFLVAVLVKVAEARKNRPAGAIPSPYKDGSSNNSERWQHQIKEVLASSQEALVVTERKYLKSDWCKTQPLRQTVSEEGCRSRTILNRFCYGQCNSFYIPRHVKKEEESFQSCAFCKPQRVTSVLVELECPGLDPPFRLKKIQKVKQCRCMSVNLSDSDKQ [Q9H772],percentage of EdU-negative,hTERT-HMEC; [8],5.28 ± 0.078%
same,percentage of EdU-negative,hTERT-HMEC; [9],5.14 ± 0.38%
same,percentage of EdU-negative,MCF7; [8],22.3 ± 1.6%
same,percentage of EdU-negative,MCF7; [9],27.2 ± 0.92%
MGAAARLSAPRALVLWAALGAAAHIGPAPDPEDWWSYKDNLQGNFVPGPPFWGLVNAAWSLCAVGKRQSPVDVELKRVLYDPFLPPLRLSTGGEKLRGTLYNTGRHVSFLPAPRPVVNVSGGPLLYSHRLSELRLLFGARDGAGSEHQINHQGFSAEVQLIHFNQELYGNFSAASRGPNGLAILSLFVNVASTSNPFLSRLLNRDTITRISYKNDAYFLQDLSLELLFPESFGFITYQGSLSTPPCSETVTWILIDRALNITSLQMHSLRLLSQNPPSQIFQSLSGNSRPLQPLAHRALRGNRDPRHPERRCRGPNYRLHVDGVPHGR,percentage of EdU-negative,hTERT-HMEC; protein concentration 0.021 µM,4.83 ± 0.27%
same,percentage of EdU-negative,hTERT-HMEC; protein concentration 0.21 µM,7.53 ± 1.3%
same,percentage of EdU-negative,MCF7; protein concentration 0.021 µM,25.5 ± 1.3%
same,percentage of EdU-negative,MCF7; protein concentration 0.21 µM,24.9 ± 0.45%
MGAARLLPNLTLCLQLLILCCQTQGENHPSPNFNQYVRDQGAMTDQLSRRQIREYQLYSRTSGKHVQVTGRRISATAEDGNKFAKLIVETDTFGSRVRIKGAESEKYICMNKRGKLIGKPSGKSKDCVFTEIVLENNYTAFQNARHEGWFMAFTRQGRPRQASRSRQNQREAHFIKRLYQGQLPFPNHAEKQKQFEFVGSAPTRRTKRTRRPQPLT,percentage of EdU-negative,hTERT-HMEC; [10],4.842 ± 0.02%
same,percentage of EdU-negative,hTERT-HMEC; [11],5.5 ± 0.25%
same,percentage of EdU-negative,MCF7; [10],26.1 ± 0.65%
same,percentage of EdU-negative,MCF7; [11],25.6 ± 3.5%
MGAASGRRGPGLLLPLPLLLLLPPQPALALDPGLQPGNFSADEAGAQLFAQSYNSSAEQVLFQSVAASWAHDTNITAENARRQEEAALLSQEFAEAWGQKAKELYEPIWQNFTDPQLRRIIGAVRTLGSANLPLAKRQQYNALLSNMSRIYSTAKVCLPNKTATCWSLDPDLTNILASSRSYAMLLFAWEGWHNAAGIPLKPLYEDFTALSNEAYKQDGFTDTGAYWRSWYNSPTFEDDLEHLYQQLEPLYLNLHAFVRRALHRRYGDRYINLRGPIPAHLLGDMWAQSWENIYDMVVPFPDKPNLDVTSTMLQQGWNATHMFRVAEEFFTSLELSPMPPEFWEGSMLEKPADGREVVCHASAWDFYNRKDFRIKQCTRVTMDQLSTVHHEMGHIQYYLQYKDLPVSLRRGANPGFHEAIGDVLALSVSTPEHLHKIGLLDRVTNDTESDINYLLKMALEKIAFLPFGYLVDQWRWGVFSGRTPPSRYNFDWWYLRTKYQGICPPVTRNETHFDAGAKFHVPNVTPYIRYFVSFVLQFQFHEALCKEAGYEGPLHQCDIYRSTKAGAKLRKVLQAGSSRPWQEVLKDMVGLDALDAQPLLKYFQPVTQWLQEQNQQNGEVLGWPEYQWHPPLPDNYPEGIDLVTDEAEASKFVEEYDRTSQVVWNEYAEANWNYNTNITTETSKILLQKNMQIANHTLKYGTQARKFDVNQLQNTTIKRIIKKVQDLERAALPAQELEEYNKILLDMETTYSVATVCHPNGSCLQLEPDLTNVMATSRKYEDLLWAWEGWRDKAGRAILQFYPKYVELINQAARLNGYVDAGDSWRSMYETPSLEQDLERLFQELQPLYLNLHAYVRRALHRHYGAQHINLEGPIPAHLLGNMWAQTWSNIYDLVVPFPSAPSMDTTEAMLKQGWTPRRMFKEADDFFTSLGLLPVPPEFWNKSMLEKPTDGREVVCHASAWDFYNGKDFRIKQCTTVNLEDLVVAHHEMGHIQYFMQYKDLPVALREGANPGFHEAIGDVLALSVSTPKHLHSLNLLSSEGGSDEHDINFLMKMALDKIAFIPFSYLVDQWRWRVFDGSITKENYNQEWWSLRLKYQGLCPPVPRTQGDFDPGAKFHIPSSVPYIRYFVSFIIQFQFHEALCQAAGHTGPLHKCDIYQSKEAGQRLATAMKLGFSRPWPEAMQLITGQPNMSASAMLSYFKPLLDWLRTENELHGEKLGWPQYNWTPNSARSEGPLPDSGRVSFLGLDLDAQQARVGQWLLLFLGIALLVATLGLSQRLFSIRHRSLHRHSHGPQFGSEVELRHS,percentage of EdU-negative,hTERT-HMEC; [12],4.7 ± 0.63%
same,percentage of EdU-negative,hTERT-HMEC; [13],5.68 ± 0.65%
same,percentage of EdU-negative,MCF7; [12],27.2 ± 0.68%
same,percentage of EdU-negative,MCF7; [13],28.2 ± 4.2%
MGADGETVVLKNMLIGINLILLGSMIKPSECQLEVTTERVQRQSVEEEGGIANYNTSSKEQPVVFNHVYNINVPLDNLCSSGLEASAEQEVSAEDETLAEYMGQTSDHESQVTFTHRINFPKKACPCASSAQVLQELLSRIEMLEREVSVLRDQCNANCCQESAATGQLDYIPHCSGHGNFSFESCGCICNEGWFGKNCSEPYCPLGCSSRGVCVDGQCICDSEYSGDDCSELRCPTDCSSRGLCVDGECVCEEPYTGEDCRELRCPGDCSGKGRCANGTCLCEEGYVGEDCGQRQCLNACSGRGQCEEGLCVCEEGYQGPDCSAVAPPEDLRVAGISDRSIELEWDGPMAVTEYVISYQPTALGGLQLQQRVPGDWSGVTITELEPGLTYNISVYAVISNILSLPITAKVATHLSTPQGLQFKTITETTVEVQWEPFSFSFDGWEISFIPKNNEGGVIAQVPSDVTSFNQTGLKPGEEYIVNVVALKEQARSPPTSASVSTVIDGPTQILVRDVSDTVAFVEWIPPRAKVDFILLKYGLVGGEGGRTTFRLQPPLSQYSVQALRPGSRYEVSVSAVRGTNESDSATTQFTTEIDAPKNLRVGSRTATSLDLEWDNSEAEVQEYKVVYSTLAGEQYHEVLVPRGIGPTTRATLTDLVPGTEYGVGISAVMNSQQSVPATMNARTELDSPRDLMVTASSETSISLIWTKASGPIDHYRITFTPSSGIASEVTVPKDRTSYTLTDLEPGAEYIISVTAERGRQQSLESTVDAFTGFRPISHLHFSHVTSSSVNITWSDPSPPADRLILNYSPRDEEEEMMEVSLDATKRHAVLMGLQPATEYIVNLVAVHGTVTSEPIVGSITTGIDPPKDITISNVTKDSVMVSWSPPVASFDYYRVSYRPTQVGRLDSSVVPNTVTEFTITRLNPATEYEISLNSVRGREESERICTLVHTAMDNPVDLIATNITPTEALLQWKAPVGEVENYVIVLTHFAVAGETILVDGVSEEFRLVDLLPSTHYTATMYATNGPLTSGTISTNFSTLLDPPANLTASEVTRQSALISWQPPRAEIENYVLTYKSTDGSRKELIVDAEDTWIRLEGLLENTDYTVLLQAAQDTTWSSITSTAFTTGGRVFPHPQDCAQHLMNGDTLSGVYPIFLNGELSQKLQVYCDMTTDGGGWIVFQRRQNGQTDFFRKWADYRVGFGNVEDEFWLGLDNIHRITSQGRYELRVDMRDGQEAAFASYDRFSVEDSRNLYKLRIGSYNGTAGDSLSYHQGRPFSTEDRDNDVAVTNCAMSYKGAWWYKNCHRTNLNGKYGESRHSQGINWYHWKGHEFSIPFVEMKMRPYNHRLMAGRKRQSLQF,percentage of EdU-negative,hTERT-HMEC; [14],5.09 ± 0.52%
same,percentage of EdU-negative,hTERT-HMEC; [15],6.03 ± 1.7%
same,percentage of EdU-negative,MCF7; [14],26.36 ± 0.12%
same,percentage of EdU-negative,MCF7; [15],26.4 ± 0.85%
MGAGATGRAMDGPRLLLLLLLGVSLGGAKEACPTGLYTHSGECCKACNLGEGVAQPCGANQTVCEPCLDSVTFSDVVSATEPCKPCTECVGLQSMSAPCVEADDAVCRCAYGYYQDETTGRCEACRVCEAGSGLVFSCQDKQNTVCEECPDGTYSDEANHVDPCLPCTVCEDTERQLRECTRWADAECEEIPGRWITRSTPPEGSDSTAPSTQEPEAPPEQDLIASTVAGVVTTVMGSSQPVVTRGTTDNLIPVYCSILAAVVVGLVAYIAFKRWNSCKQNKQGANSRPVNQTPPPEGEKLHSDSGISVDSQSLHDQQPHTQTASGQALKGDGGLYSSLPPAKREEVEKLLNGSAGDTWRHLAGELGYQPEHIDSFTHEACPVRALLASWATQDSATLDALLAALRRIQRADLVESLCSESTATSPV,percentage of EdU-negative,hTERT-HMEC; [16],4.77 ± 0.43%
same,percentage of EdU-negative,hTERT-HMEC; [17],4.6 ± 0.64%
same,percentage of EdU-negative,MCF7; [16],24.6 ± 0.37%
same,percentage of EdU-negative,MCF7; [17],23 ± 1.5%
